In assay [1] the target is recombinant L-asparaginase from Pseudomonas resinovorans IGS-131 (PrASNase) (Pseudomonas resinovorans IGS-131). The assay is described as follows: SAXS.
Assay [2] has the same target. Kind of assay: cross-linking + SEC.
Assay [3] shares this target. Kind of assay: SEC.
Assay [4] has the same target. Kind of assay: AUC.
Assay [5] shares this target. Kind of assay: SEC. The source holds these as a separate data set.

“And” between values parts separate entries of the source, which are not always exact repeats. Equal entries are not always repeated.

As for “recombinant L-asparaginase from Pseudomonas resinovorans IGS-131 (PrASNase) (enzyme)”, the stoichiometry N is 2 and 4 in assay [1]; 2 in assay [2]; 2 in assay [3]; 2 in assay [5]. In assay [4], the percent present as dimer was determined as 4.8%. The percent present as monomer in assay [4] was 94.9%.

Values taken from publication doi:10.1101/2023.01.01.522448.
